Source: patent US20100022402A1, “Methods and Compositions for the In Vitro High-Throughput Detection of Protein/Protein Interactions” (priority 2004, published 2010)
Where no end group is shown, it is not given here.

T1: λD-Acid display phage (gpD fused to acidic aptamer [Gly-Glu]4) (bacteriophage lambda), P03712
T1 chain: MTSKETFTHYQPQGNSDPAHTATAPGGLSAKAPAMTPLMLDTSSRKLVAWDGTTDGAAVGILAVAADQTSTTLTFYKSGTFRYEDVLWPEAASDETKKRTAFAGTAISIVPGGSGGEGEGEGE

T2: λD-Base display phage (gpD fused to basic aptamer [Gly-Arg]4) (bacteriophage lambda), P03712
T2 chain: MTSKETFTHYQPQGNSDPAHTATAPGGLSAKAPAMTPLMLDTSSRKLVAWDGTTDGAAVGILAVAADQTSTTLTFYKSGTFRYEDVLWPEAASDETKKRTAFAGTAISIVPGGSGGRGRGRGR


Tests used:
[1] = target: T1, λD-Acid display phage (gpD fused to …); assay: apparent KD, calculated as the concentration of free peptide that results in an IC50 in the λD-Acid:λD-Base co-infection assay
[2] = target: T1, λD-Acid display phage (gpD fused to …); assay: competition: free peptide titrates λD-Acid:λD-Base co-infection (MOI 0.0025), loss of double resistant multilysogens
[3] = target: T2, λD-Base display phage (gpD fused to …); assay: apparent KD, calculated as the concentration of free peptide that results in an IC50 in the λD-Acid:λD-Base co-infection assay
[4] = target: T2, λD-Base display phage (gpD fused to …); assay: competition: free peptide titrates λD-Acid:λD-Base co-infection (MOI 0.0025), loss of double resistant multilysogens

Row | Kd [1] | IC50 [2] | Kd [3] | IC50 [4] | Binder
1 | 10 nM | 10 nM |  |  | GRGRGRGR (not fully specified) [Basic Aptamer (free synthetic peptide [Gly-Arg]4)]
2 |  |  | 10 nM | 10 nM | GEGEGEGE (not fully specified) [Acidic Aptamer (free synthetic peptide [Gly-Glu]4)]
